This assay deals with T1, recombinant GST-tagged human loricrin (GST-loricrin) (human, UniProt P23490 1-312).
T1 construct: loricrin, human, full length; also called GST-tagged full length loricrin
T1 sequence (looked up): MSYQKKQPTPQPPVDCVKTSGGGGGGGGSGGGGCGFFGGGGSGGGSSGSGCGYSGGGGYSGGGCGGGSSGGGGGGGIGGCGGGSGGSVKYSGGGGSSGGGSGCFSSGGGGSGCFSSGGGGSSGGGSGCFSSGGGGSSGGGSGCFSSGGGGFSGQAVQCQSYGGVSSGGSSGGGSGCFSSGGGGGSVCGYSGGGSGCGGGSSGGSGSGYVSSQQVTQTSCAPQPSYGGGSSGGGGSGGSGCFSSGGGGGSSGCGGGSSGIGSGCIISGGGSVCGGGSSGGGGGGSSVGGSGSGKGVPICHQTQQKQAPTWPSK
In words: dynamic force spectroscopy (AFM); as the single-molecule force spectroscopy, retraction speeds 1, 2.5, 5 and 10 µm s^-1; Bell-Evans fit of the high-force regime (loading rates 1.4 × 10^4 to 5 × 10^5 pN s^-1). To be noted: one partner purified.

Data on one molecule can be found in publication PMC9076634, “Fibronectin binding protein B binds to loricrin and promotes corneocyte adhesion by Staphylococcus aureus” (Nature Communications, 2022).

B1: fibronectin binding protein B (FnBPB) on S. aureus SH1000 4X (pFnBPB) cells (natural protein)
chain: ASEQNNTTVEESGSSATESKASETQTTTNNVNTIDETQSYSATSTEQPSQSTQVTTEEAPKTVQAPKVETSRVDLPSEKVADKETTGTQVDIAQPSNVSEIKPRMKRSTDVTAVAEKEVVEETKATGTDVTNKVEVEEGSEIVGHKQDTNVVNPHNAERVTLKYKWKFGEGIKAGDYFDFTLSDNVETHGISTLRKVPEIKSTDGQVMATGEIIGERKVRYTFKEYVQEKKDLTAELSLNLFIDPTTVTQKGNQNVEVKLGETTVSKIFNIQYLGGVRDNWGVTANGRIDTLNKVDGKFSHFAYMKPNNQSLSSVTVTGQVTKGNKPGVNNPTVKVYKHIGSDDLAESVYAKLDDVSKFEDVTDNMSLDFDTNGGYSLNFNNLDQSKNYVIKYEGYYDSNASNLEFQTHLFGYYNYYYTSNLTWKNGVAFYSNNAQGDGKDKLKEPIIEHSTPIELEFKSEPPVEKHELTGTIEESNDSKPIDFEYHTAVEGAEGHAEGTIETEEDSIHVDFEESTHENSKHHADVVEYEEDTNPGGGQVTTESNLVEFDEDSTKGIVTGAVSDHTTIEDTKEYTTESNLIELVDELPEEHGQAQGPIEEITENNHHISHSGLGTENGHGNYGVIEEIEENSHVDIKSELGYEGGQNSGNQSFEEDTEEDKPKYEQGGNIVDIDFDSVPQIHGQNNGNQSFEEDTEKDKPKYEQGGNIIDIDFDSVPHIHGFNKHTEIIEEDTNKDKPNYQFGGHNSVDFEEDTLPQVSGHNEGQQTIEEDTTPPIVPPTPPTPEVPSEPETPTPPTPEVPSEPETPTPPTPEVPTEPGKPIPPAKEEPKKPSKPVEQGKVVTPVIEINEKVKAVVPTKKAQSKKSELPET
As a reminder, the koff is a measure of how fast the partners let go of each other. B1: the koff is 5.8e-09 s⁻¹.
